Source: IntAct's records for PubMed 12832462

B1: Nuclear factor NF-kappa-B p105 subunit (Homo sapiens), P19838 (parent)
chain: MAEDDPYLGRPEQMFHLDPSLTHTIFNPEVFQPQMALPTDGPYLQILEQPKQRGFRFRYVCEGPSHGGLPGASSEKNKKSYPQVKICNYVGPAKVIVQLVTNGKNIHLHAHSLVGKHCEDGICTVTAGPKDMVVGFANLGILHVTKKKVFETLEARMTEACIRGYNPGLLVHPDLAYLQAEGGGDRQLGDREKELIRQAALQQTKEMDLSVVRLMFTAFLPDSTGSFTRRLEPVVSDAIYDSKAPNASNLKIVRMDRTAGCVTGGEEIYLLCDKVQKDDIQIRFYEEEENGGVWEGFGDFSPTDVHRQFAIVFKTPKYKDINITKPASVFVQLRRKSDLETSEPKPFLYYPEIKDKEEVQRKRQKLMPNFSDSFGGGSGAGAGGGGMFGSGGGGGGTGSTGPGYSFPHYGFPTYGGITFHPGTTKSNAGMKHGTMDTESKKDPEGCDKSDDKNTVNLFGKVIETTEQDQEPSEATVGNGEVTLTYATGTKEESAGVQDNLFLEKAMQLAKRHANALFDYAVTGDVKMLLAVQRHLTAVQDENGDSVLHLAIIHLHSQLVRDLLEVTSGLISDDIINMRNDLYQTPLHLAVITKQEDVVEDLLRAGADLSLLDRLGNSVLHLAAKEGHDKVLSILLKHKKAALLLDHPNGDGLNAIHLAMMSNSLPCLLLLVAAGADVNAQEQKSGRTALHLAVEHDNISLAGCLLLEGDAHVDSTTYDGTTPLHIAAGRGSTRLAALLKAAGADPLVENFEPLYDLDDSWENAGEDEGVVPGTTPLDMATSWQVFDILNGKPYEPEFTSDDLLAQGDMKQLAEDVKLQLYKLLEIPDPDKNWATLAQKLGLGILNNAFRLSPAPSKTLMDNYEVSGGTVRELVEALRQMGYTEAIEVIQAASSPVKTTSQAHSLPLSPASTRQQIDELRDSDSVCDSGVETSFRKLSFTESLTSGASLLTLNKMPHDYGQEGPLEGKI

Variants of: B1
Details: with m3k8_human MAP3K8, P41279
Chain of m3k8_human MAP3K8, P41279 (P41279 whole entry): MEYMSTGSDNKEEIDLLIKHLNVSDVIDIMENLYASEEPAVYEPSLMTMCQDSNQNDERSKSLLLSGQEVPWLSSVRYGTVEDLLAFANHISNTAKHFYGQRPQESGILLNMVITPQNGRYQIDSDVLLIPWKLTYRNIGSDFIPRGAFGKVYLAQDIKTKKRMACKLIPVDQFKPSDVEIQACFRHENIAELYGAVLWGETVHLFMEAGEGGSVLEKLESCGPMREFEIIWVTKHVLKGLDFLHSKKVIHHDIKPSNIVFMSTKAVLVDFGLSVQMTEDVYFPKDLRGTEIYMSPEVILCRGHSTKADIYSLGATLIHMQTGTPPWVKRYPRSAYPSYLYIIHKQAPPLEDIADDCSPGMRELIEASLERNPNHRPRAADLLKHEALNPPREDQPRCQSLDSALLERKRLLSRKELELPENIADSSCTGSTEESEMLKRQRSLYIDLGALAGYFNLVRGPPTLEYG

effect of a mutation on the interaction | Variant
decreasing interaction | L841A
